Read-outs that look alike come from different tables or passages of the source.
Experiments:
Assay in all cases: ELISA, OD405 at 10 ug/ml
AE.con gp140CF [1] = target: AE.con gp140CF
Con 6 gp120 [2] = target: Con 6 gp120
B.9021 gp140C = B.9021 gp140C (HIV-1)
SIV CPZ US-1 gp140CF [3] = target: T1, SIV CPZ US-1 gp140CF (SIVcpz)
T1 construct: also called US-1 SIVCPZ gp140CF
T1 chain: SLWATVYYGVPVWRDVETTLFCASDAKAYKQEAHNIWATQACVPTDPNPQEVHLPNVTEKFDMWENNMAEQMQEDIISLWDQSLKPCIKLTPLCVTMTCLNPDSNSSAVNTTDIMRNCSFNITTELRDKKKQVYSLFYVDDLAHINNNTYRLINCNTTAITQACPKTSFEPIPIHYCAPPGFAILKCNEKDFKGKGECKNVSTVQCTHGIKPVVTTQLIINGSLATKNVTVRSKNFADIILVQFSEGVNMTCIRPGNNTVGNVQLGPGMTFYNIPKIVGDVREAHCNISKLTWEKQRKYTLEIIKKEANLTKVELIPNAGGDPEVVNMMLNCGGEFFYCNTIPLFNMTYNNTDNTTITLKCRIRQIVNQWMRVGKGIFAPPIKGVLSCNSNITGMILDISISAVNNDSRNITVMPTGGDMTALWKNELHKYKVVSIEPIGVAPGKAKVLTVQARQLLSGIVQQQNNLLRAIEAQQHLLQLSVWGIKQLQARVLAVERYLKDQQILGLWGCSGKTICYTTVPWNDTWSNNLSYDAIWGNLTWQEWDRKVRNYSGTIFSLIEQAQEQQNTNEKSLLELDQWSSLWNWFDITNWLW

B.62357 gp140C [4] = target: T2, B.62357 gp140C
T2 construct: also called B.62357 140C

B.con gp140CF [5] = target: B.con gp140CF
G.con gp140CF [6] = target: G.con gp140CF
gp70 C.1086 V1/V2 [7] = target: T3, gp70 C.1086 V1/V2 (HIV-1 V1V2 on murine leukemia virus gp70)
T3 construct: also called C.gp70 1086C V1V2; C.1086gp70V1V2
T3 chain: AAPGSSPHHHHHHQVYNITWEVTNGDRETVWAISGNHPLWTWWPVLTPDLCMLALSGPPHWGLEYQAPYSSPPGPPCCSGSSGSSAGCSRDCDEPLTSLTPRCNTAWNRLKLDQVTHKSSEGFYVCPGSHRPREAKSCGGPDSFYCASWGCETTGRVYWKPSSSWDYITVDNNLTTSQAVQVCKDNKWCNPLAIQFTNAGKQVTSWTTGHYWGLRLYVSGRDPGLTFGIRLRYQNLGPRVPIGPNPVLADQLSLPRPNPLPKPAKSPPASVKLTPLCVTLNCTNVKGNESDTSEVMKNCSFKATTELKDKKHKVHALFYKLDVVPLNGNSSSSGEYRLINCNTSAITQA

gp70 B.CaseA2 V1/V2 [8] = target: T4, gp70 B.CaseA2 V1/V2 (HIV-1 V1V2 on murine leukemia virus gp70)
T4 construct: also called B.gp70CaseA2 V1/V2; gp70 B.CaseAV1V2
T4 chain: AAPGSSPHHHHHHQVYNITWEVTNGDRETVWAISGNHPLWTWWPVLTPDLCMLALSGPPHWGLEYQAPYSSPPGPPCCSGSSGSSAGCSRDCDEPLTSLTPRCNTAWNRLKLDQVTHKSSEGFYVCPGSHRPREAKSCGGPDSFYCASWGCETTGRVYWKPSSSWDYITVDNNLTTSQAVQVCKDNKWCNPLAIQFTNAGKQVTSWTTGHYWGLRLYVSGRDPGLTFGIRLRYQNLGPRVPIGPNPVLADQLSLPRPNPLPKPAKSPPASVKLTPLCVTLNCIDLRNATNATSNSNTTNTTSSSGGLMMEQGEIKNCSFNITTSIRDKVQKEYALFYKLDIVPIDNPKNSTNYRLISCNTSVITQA

AE.97CNG2XF gp140CF [9] = target: T5, AE.97CNG2XF gp140CF (HIV-1)
T5 construct: also called E.97CNGX2F gp140CF

B.040 gp140C [10] = target: B.040 gp140C
A.9004SS V1/V2 tags [11] = target: T6, A.9004SS V1/V2 tags
T6 V1V2 tags construct: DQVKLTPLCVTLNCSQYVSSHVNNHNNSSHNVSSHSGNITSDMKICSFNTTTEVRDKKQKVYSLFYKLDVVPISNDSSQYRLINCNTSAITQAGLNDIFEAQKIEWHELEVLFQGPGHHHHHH

C.CAP206 gp140CF.12 [12] = target: C.CAP206 gp140CF.12 (HIV-1)
B.HXB/BAL gp140CFI [13] = target: T7, B.HXB/BAL gp140CFI (HIV-1, UniProt P04578 33-680)
T7 construct: also called B.HxB/Ba gp140 CFI

C.1086 gp140 [14] = target: T8, C.1086 gp140
T8 construct: also called C.1086gp140C

AE.con gp140CF [15] = target: AE.con gp140CF; remark: listed apart in the source
Con 6 gp120 [16] = target: Con 6 gp120; remark: listed apart in the source
SIV CPZ US-1 gp140CF [17] = target: T1, SIV CPZ US-1 gp140CF
B.62357 gp140C [18] = target: T2, B.62357 gp140C; remark: listed apart in the source
B.con gp140CF [19] = target: B.con gp140CF; remark: listed apart in the source
G.con gp140CF [20] = target: G.con gp140CF; remark: listed apart in the source
gp70 C.1086 V1/V2 [21] = target: T3, gp70 C.1086 V1/V2
gp70 B.CaseA2 V1/V2 [22] = target: T4, gp70 B.CaseA2 V1/V2
AE.97CNG2XF gp140CF [23] = target: T5, AE.97CNG2XF gp140CF; remark: listed apart in the source
B.040 gp140C [24] = target: B.040 gp140C; remark: listed apart in the source
A.9004SS V1/V2 tags [25] = target: T6, A.9004SS V1/V2 tags
C.CAP206 gp140CF.12 [26] = target: C.CAP206 gp140CF.12 (HIV-1); remark: listed apart in the source
B.HXB/BAL gp140CFI [27] = target: T7, B.HXB/BAL gp140CFI; remark: listed apart in the source
C.1086 gp140 [28] = target: T8, C.1086 gp140; remark: listed apart in the source

Measured: binding result

B1: CH01_UA1 (antibody, V domains shown)
VH: EVQLVESGGGVVRPGGSLRLSCAASGFTFDDYGMSWVRQAPGKGLEWVSGINWNGGSTGYADSVKGRFTISRDNAKNSLYLQMNSLRAEDTALYYCARGTDYTIDDQGIRYQGSGTFWYFDLWGRGTLVTVSS
VL: not shown
no binding (tested: 10 ug/ml): AE.con gp140CF [1] | Con 6 gp120 [2] | B.9021 gp140C | SIV CPZ US-1 gp140CF [3] | B.62357 gp140C [4] | B.con gp140CF [5] | G.con gp140CF [6] | gp70 C.1086 V1/V2 [7] | gp70 B.CaseA2 V1/V2 [8] | AE.97CNG2XF gp140CF [9] | B.040 gp140C [10] | A.9004SS V1/V2 tags [11] | C.CAP206 gp140CF.12 [12] | B.HXB/BAL gp140CFI [13] | C.1086 gp140 [14]

B2: CH01_UA2 (antibody, V domains shown)
VH: EVQLVESGGGVVRPGGSLRLSCAASGFTFDDYGMSWVRQAPGKGLEWVSGINWNGGSTGYADSVKGRFTISRDNAKNSLYLQMNSLRAEDTALYYCARGTDYTIDDQGILYQGSGTFWYFDLWGRGTLVTVSS
VL: not shown
no binding (tested: 10 ug/ml): AE.con gp140CF [15] | Con 6 gp120 [16] | SIV CPZ US-1 gp140CF [17] | B.62357 gp140C [18] | B.con gp140CF [19] | G.con gp140CF [20] | gp70 C.1086 V1/V2 [21] | gp70 B.CaseA2 V1/V2 [22] | AE.97CNG2XF gp140CF [23] | B.040 gp140C [24] | A.9004SS V1/V2 tags [25] | C.CAP206 gp140CF.12 [26] | B.HXB/BAL gp140CFI [27] | C.1086 gp140 [28]

— patent publication US9988424 (DUKE UNIVERSITY, dated 2018)
